Changes are numbered by the printed parent chain. “And” between values parts separate entries of the source, which are not always exact repeats. Identical values can stand only once. Each block holds one molecule with its values, some of them ahead of it.
How the values were obtained:
[1] = system: induced high-expression PD-L1 CT26 tumor cell; assay: Combined anti-tumor effect of Nb16 and SZU-101, IFN-γ-induced CT26 subcutaneous tumor model; type: in vivo, BALB/c mouse; conditions: Nb16 10 mg/kg intraperitoneal, SZU-101 3 mg/kg peritumoral
Experimental: The mouse CT26 tumor cells were recovered and passaged, it was ensured that tumor cells at least have been subjected to 3 generations during tumor-bearing, and mouse IFN-γ with a final concentration of 100 ng/mL was used to induce tumor cells for 24 h before tumor-bearing, so that the cell surface thereof highly expresses PD-L1; the induced high-expression PD-L1 CT26 tumor cell was inoculated subcutaneously into a female BALB/c mouse, wherein the inoculation amount was 1×10^6 cells/one; and randomly grouping mice into four groups (9 per group), i.e., a same-type control group (mFc), a nano-antibody Nb16 group (Nb16), a TLR7 agonist SZU-101 group (SZU-101) and a combined treatment group (NB16/SZU-101), wherein the administration amount of the mFc and the Nb16 was 10 mg/kg, and intraperitoneal administration was performed; and the administration amount of the SZU-101 was 3 mg/kg, and the tumor was administered circumferentially. The administration cycle were Nb16 administered on D1, D5, D9, D12, and D14 and SZU-101 administered on D9-D14 (3A). The body weight of the mouse and the tumor major diameter (L) and the short diameter (W) in the administration cycle were observed and recorded until the anatomical endpoint, and the tumor volume V=(L×W×W)/2 was calculated, a tumor growth curve was drawed, and the tumor inhibition rate was calculated; and the experiment was terminated on the fifteenth day. After performing euthanasia, the animal was dissected, and the subcutaneous tumor was taken out.

HEK293T/hPD-L1 = target: T1, HEK293T/hPD-L1 (Homo sapiens, UniProt Q9NZQ7); assay: Human PD-L1 binding activity assay of candidate anti-human PD-L1 nanobodies (flow cytometry); conditions: nanobody 10 μg/mL
T1 construct: expressed in transfected cells; host or cells: HEK293T
T1 sequence (Q9NZQ7 19-290): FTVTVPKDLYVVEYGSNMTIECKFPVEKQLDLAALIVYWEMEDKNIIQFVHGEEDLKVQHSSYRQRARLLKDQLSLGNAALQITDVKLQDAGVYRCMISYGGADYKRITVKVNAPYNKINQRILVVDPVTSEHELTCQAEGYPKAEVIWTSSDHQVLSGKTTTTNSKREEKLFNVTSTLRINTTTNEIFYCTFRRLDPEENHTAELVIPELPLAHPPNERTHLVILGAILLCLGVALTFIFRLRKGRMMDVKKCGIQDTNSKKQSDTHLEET
Experimental: The cell strain HEK293T/hPD-L1 was digested, and centrifugationwas performed to remove the supernatant; the cells were washed one time with PBS and the cell density was adjusted to 2.5×10^6 cells/mL; each cell sample was added to a 100 μL cell suspension, that is, a 2.5×10^5 cell/sample was comprised; different anti-human PD-L1 candidate nanobodies (the concentration is 10 μg/mL) were respectively added to the samples; incubating for 20 min at 4° C.; centrifuging, removing supernatant, and the cells were washing once with PBS; using diluted antibody anti-human IgG Fc (FITC) as secondary antibody, and the cells were re-suspended; incubating at 4° C. for 20 min; centrifuging, removing supernatant, the cells were washing twice with PBS, and transferred to a flow tube; and was performed on-machine detection by using a flow cytometer to obtain the binding activity of the candidate nanobody and human PD-L1, as shown in FIG. 13.

[2] = target: T2, human PD-1/PD-L1 (HEK293T/hPD-L1) (Homo sapiens, UniProt Q9NZQ7); assay: Human PD-1/PD-L1 blocking activity assay of candidate anti-human PD-L1 nanobodies (flow cytometry); type: binding; conditions: nanobody 10 μg/mL, human PD-1-his 1 μg/mL
T2 construct: expressed in transfected cells; host or cells: HEK293T
T2 sequence (Q9NZQ7 19-290): as above
Experimental: The cell strain HEK293T/hPD-L1 was digested, and centrifugationwas performed to remove the supernatant; the cells were washed one time with PBS and the cell density was adjusted to 2.5×10^6 cells/mL; each cell sample was added to a 100 μL cell suspension, that is, a 2.5×10^5 cell/sample was comprised; and the human PD-1-his protein (the concentration was 1 μg/mL) and the anti-human PD-L1 candidate nanobody (the concentration was 10 μg/mL) were respectively added to the sample; the cells were incubated for 20 min at 4° C.; centrifuging, supernatant was removed, and the cells were washed once with PBS; using diluted antibody anti-his-APC as secondary antibody, and the cells were re-suspended; incubated at 4° C. for 20 min; centrifuging, supernatant was removed, the cells were washedtwice with PBS, and was transferred to a flow tube; and was performed on-machine detection by using a flow cytometer to obtain the PD-1/PD-L1 blocking activity of the candidate nanobody, as shown in FIG. 14.

PD-1/PD-L1 = PD-1/PD-L1 (Mus musculus, UniProt Q9EP73); assay: In vitro activity of candidate nanobodies NB9, NB10, NB11, NB17 (blocking or non-blocking type); type: binding
Sequence of PD-1/PD-L1 (Q9EP73 19-239): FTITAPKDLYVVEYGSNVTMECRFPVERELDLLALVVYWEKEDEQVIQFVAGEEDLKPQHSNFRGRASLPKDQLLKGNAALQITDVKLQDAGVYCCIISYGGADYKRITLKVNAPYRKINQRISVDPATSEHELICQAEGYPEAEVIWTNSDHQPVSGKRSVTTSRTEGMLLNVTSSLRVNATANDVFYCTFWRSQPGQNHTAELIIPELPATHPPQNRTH

mPD-L1-Fc fusion protein [3] = target: T3, mPD-L1-Fc fusion protein (mouse; human, UniProt Q9EP73 19-239); assay: competition ELISA, coated mPD-L1-Fc, 10 µg/mL mouse PD-1-Fc-Biotin, SA-HRP detection
T3 construct: extracellular domain; also called Mouse PD-L1 (ECD)-pFUSE-hIgG1-Fc; not shown: Fc of human IgG1 from vector pFUSE-hIgG1-Fc
T3 sequence (Q9EP73 19-239 limits assumed): as the sequence (Q9EP73 19-239) above
Experimental: Coating the plate with mPD-L1-Fc fusion protein at 4° C. overnight, then the plate was sealed with BSA at 37° C. for 2 hours, Nb16 nanobodies of different concentrations and 10 μg/mL mouse PD-1-Fc-Biotin fusion protein were added in each hole., After reacting at room temperature for 1 hour, the plate was washed and antibody SA-HRP was added, and the plate reacted at room temperature for 1 hour. After washing, a color developing solution was added, and an absorption value was read at a wavelength of 450 nm.

mPD-L1-Fc fusion protein [4] = target: T3, mPD-L1-Fc fusion protein; assay: ELISA, coated mPD-L1-Fc, anti-mouse HRP detection
Experimental: Coating the plate with mPD-L1-Fc fusion protein at 4° C. overnight, then the plate was sealed with BSA at 37° C. for 2 hours, Nb 16 nanobodies of different concentrations were added in each hole, reacted at room temperature for 1 hour, and the plate were washed and goat anti-mouse horseradish peroxidase labeled antibody was added, and reacting at room temperature for 1 hour. After washing, a color developing solution was added, and an absorption value was read at a wavelength of 450 nm.

[5] = target: T4, mouse PD-L1 on cell strain HEK293T/mPD-L1 (mouse, UniProt Q9EP73 19-290); assay: flow cytometry on HEK293T/mPD-L1, anti-mouse IgG Fc (PE)
T4 construct: whole, on cells
T4 sequence (Q9EP73 19-290): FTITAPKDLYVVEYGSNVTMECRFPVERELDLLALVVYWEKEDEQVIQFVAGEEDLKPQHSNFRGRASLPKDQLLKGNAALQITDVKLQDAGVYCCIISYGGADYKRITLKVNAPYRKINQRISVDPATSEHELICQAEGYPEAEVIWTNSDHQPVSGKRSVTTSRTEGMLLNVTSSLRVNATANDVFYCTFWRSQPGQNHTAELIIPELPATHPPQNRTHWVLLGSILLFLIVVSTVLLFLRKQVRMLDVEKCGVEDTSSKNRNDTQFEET

Molecule: COCCOc1nc(N)c2nc(O)n(Cc3ccc(CNC(=O)CCC(=O)O)cc3)c2n1 [SZU-101]
Anti-tumor effect [1]: significantly inhibit tumor growth | Tumor inhibitory rate ([1]; day 15): 49% | Endpoint tumor Weight ([1]; individual mice, day 15): 0.298 g and 0.560 g and 0.330 g and 0.278 g and 0.354 g and 0.516 g and 0.286 g and 0.328 g and 0.426 g

Binding activity with human PD-L1 (HEK293T/hPD-L1): good binding activity | Blocking of human PD-1/PD-L1 binding [2]: effectively block
B1: h_Nb2: anti-human PD-L1 nanobody, VHH SEQ ID NO: 25 (protein)
VHH: DVQLQESGGGLVQPGGSLRLSCAASGFTFGDRWMYWLRQAPGKGLEWVSSINPAGRSTYYADSVKGRFTISRDNAKNTLYLQMNSLKSEDTAVYYCTKDPGGYQKGQGTQVTVSS
modifications: h_Nb2 Amino acid sequence of VHH

Binding activity with human PD-L1 (HEK293T/hPD-L1): good binding activity | Blocking of human PD-1/PD-L1 binding [2]: effectively block
B2: h_Nb1: anti-human PD-L1 nanobody, VHH SEQ ID NO: 21 (protein)
VHH: DVQLQESGGGLVQPGGSLRLSCAASGFTFSSYAMSWVRQAPGKGLEWVSDINSGGDNTDYADSVKGRFTISRDNAKNTLYLQMNSLKPEDTAVYYCARGPKLCFSSWGQGTQVTVSS
modifications: h_Nb1 Amino acid sequence of VHH

Binding activity with human PD-L1 (HEK293T/hPD-L1): good binding activity
B3: h_Nb9: anti-human PD-L1 nanobody, VHH SEQ ID NO: 40 (protein)
VHH: DVQLQESGGGLVQPGGSLRLSCASSGSIFGLGVKGWYRQPPGNQREMVAQIISGGRISYADSVKGRFTISRDNAKNTVYLQMNSLKPEDTAVYYCNAWGPGQRNYWGRGTQVTVSS
modifications: h_Nb9 Amino acid sequence of VHH

Blocking type or non-blocking type nanobody (PD-1/PD-L1): blocking type
B4: Nb9: anti-PD-L1 nanobody, VHH SEQ ID NO: 5 (protein)
VHH: QVQLQESGGGLVHPGGSLRLSCAASGFTFSSYTMRWVRQAPGKGLEWVSGINNVGGSTLYADSVKGRFTISRDNAKNTLYLQMNSLQPDDTAMYYCATGIIGSGLETATYRGQGTQVTVSS
modifications: Nb9 Amino acid sequence of VHH

Blocking type or non-blocking type nanobody (PD-1/PD-L1): blocking type
B5: Nb10: anti-PD-L1 nanobody, VHH SEQ ID NO: 9 (protein)
VHH: QVQLQESGGGSVQAGGSLRLSCAASGYRFCRLAMRWYRQAPGKEREFVSFIDSGGTTSYADSVKGRFTISRDSAKNTVYLQMNSLKPEDTGMYYCNSDILGGGGGCPVSSYWGQGTQVTVSS
modifications: Nb10 Amino acid sequence of VHH

Blocking type or non-blocking type nanobody (PD-1/PD-L1): non-blocking
B6: Nb11: anti-PD-L1 nanobody, VHH SEQ ID NO: 13 (protein)
VHH: QVQLQESGGGSVQAEGSLRLSCSAPIYVTYYGTYCMGWFRQAPGKEREGVAGISGDGRTSYADSVKGRFTVSKDNAKNTLYLEMNSLKPEDTAMYYCALRIGGYCDTLNGADFRYWGQGTQVTVSS
modifications: Nb11 Amino acid sequence of VHH

Binding activity with human PD-L1 (HEK293T/hPD-L1): good binding activity
B7: h_Nb13: anti-human PD-L1 nanobody, VHH SEQ ID NO: 48 (protein)
VHH: DVQLQESGGGLVQPGGSLRLSCAASGSIFSINAMGWYRQAPGKSRELVAAITSGGSTNYADSVKGRFTISRDTAKNTVYLLMNSLEPEDTAVYYCNVERRRPPHYLSEYDFDWGQGTQVTVSS
modifications: h_Nb13 Amino acid sequence of VHH

Binding activity with human PD-L1 (HEK293T/hPD-L1): good binding activity
B8: h_Nb26: anti-human PD-L1 nanobody, VHH SEQ ID NO: 56 (protein)
VHH: B7 VHH with S25P, S30R, S44Q, K64Q, T73N, L81Q, E86K, L106Y, E108D
modifications: h_Nb26 Amino acid sequence of VHH

Binding activity with human PD-L1 (HEK293T/hPD-L1): good binding activity
B9: h_Nb12: anti-human PD-L1 nanobody, VHH SEQ ID NO: 44 (protein)
VHH: DVQLQESGGGLVQAGGSLRLSCAASGRTFSSRAMGWFRQAPGKEREFVAAISGSGRNTYYADSVKGRFTISRDNAKNSVNLQMNSLKPEDTAVYYCNAAGGGITIATMTQRTQYDYWGQGTQVTVSS
modifications: h_Nb12 Amino acid sequence of VHH

IC50 (mPD-L1-Fc fusion protein [3]): 1.02 µg/mL | EC50 (mPD-L1-Fc fusion protein [4]): 0.045 µg/mL
B10: nanobody Nb16 (Fc fusion)
chain: QVQLQESGGGSVQAGGSLRLSCAASGYTDRNYWMGWFRQAPGKEREGVAALYTRTGSTYYADSVKGRFTISHDNAKNTLYLQMNSLKPEDTAVYYCAADSNAYGLAPLHHYWGQGTQVTVSS
notes: also called bare anti-Nb16; original PD-L1 nanobody; not shown: Fc of mouse IgG2b from vector pFUSE-mIgG2b-Fc

binding result [5]: binds
B11: PD-L1 and TLR7 double-targeting nanobody coupling drug Nb16-SZU-101 (Fc fusion)
chain: B10 chain
modifications: TLR7 agonist SZU-101 coupled through SZU-101-NHS active ester to amino groups, sites not given; coupling degree 4.5
notes: not shown: Fc of mouse IgG2b from vector pFUSE-mIgG2b-Fc

Blocking type or non-blocking type nanobody (PD-1/PD-L1): non-blocking
B12: Nb17: anti-PD-L1 nanobody, VHH SEQ ID NO: 17 (protein)
VHH: QVQLQESGGGSVQAGGSLRLSCAASGYSARRRMGWFRQAPGKEREGVASIYTAGGRTWYADSVKGRFTISQDNAKNTVYLQMNSLKPDDTAMYYCAASPAPYGAESLSEADFAYWGQGTQVTVSS
modifications: Nb17 Amino acid sequence of VHH
